In patent US20040248789A1 (TIANJIN FUSOGEN BIOTECH, published 2004):

Key:
gp41 N-peptide (35-70) [1] = assay: CD thermal melting of the peptide complex, 20-95° C.
gp41 N-peptide (35-70) [2] = assay: Superdex 75 gel filtration; free Fusonex elutes at 17.3 ml
HIV-1 gp160HXB = HIV-1 gp160HXB (HIV-1, UniProt P04578 512-856); assay: cell-based or functional assay
HIV-1 gp160HXB, sequence (P04578 512-856): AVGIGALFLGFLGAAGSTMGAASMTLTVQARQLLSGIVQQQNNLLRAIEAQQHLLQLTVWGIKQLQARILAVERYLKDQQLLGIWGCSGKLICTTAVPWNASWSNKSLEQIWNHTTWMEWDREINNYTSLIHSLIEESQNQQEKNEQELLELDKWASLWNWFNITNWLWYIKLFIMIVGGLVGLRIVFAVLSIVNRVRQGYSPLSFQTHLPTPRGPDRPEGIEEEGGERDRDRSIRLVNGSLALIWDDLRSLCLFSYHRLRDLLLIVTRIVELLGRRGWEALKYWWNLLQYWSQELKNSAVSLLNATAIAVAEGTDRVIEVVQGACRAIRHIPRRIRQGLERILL

gp41 N-peptide (35-70), sequence (P04578 546-581): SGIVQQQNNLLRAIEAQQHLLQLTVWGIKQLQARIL

With Fusonex (peptide) as the molecule, how does the 50% melting temperature of the complex (gp41 N-peptide (35-70) [1]) read?
The 50% melting temperature of the complex was 70 ° C.

What about the elution peak of the complex (gp41 N-peptide (35-70) [2]) of the same molecule?
The elution peak of the complex was 13.2 mL.

T-20 (peptide) was tested. Which 50% melting temperature of the complex (gp41 N-peptide (35-70) [1]) did it give?
The 50% melting temperature of the complex was 51 ° C.

What does the source list for Ac-SWETWEREIENYTKQIYKILEESQEQQDRNEKDLLE-NH2 [Fusonex]?
IC50, cell-cell fusion induced by HIV-1 gp160HXB (luciferase reporter) (HIV-1 gp160HXB): 1.2 nM; IC50 relative to T-20, cell-cell fusion induced by HIV-1 gp160HXB (HIV-1 gp160HXB): ~0.05 fold of T-20
